Experimental data as given in article PMC5414365, “Activin A more prominently regulates muscle mass in primates than does GDF8” (Nature Communications, 2017).

B1: activin A (ligand, human, UniProt P08476 311-426, looked up)
chain: GLECDGKVNICCKKQFFVSFKDIGWNDWIIAPSGYHANYCEGECPSHIAGTSGSSLSFHSTVINHYRMRGHSPFANLKSCCVPTKLRPMSMLYYDDGQNIIKKDIQNMIVEECGCS
notes: human activin A: inhibin beta A chain, mature growth factor domain; also called Act A; source: bought: R&D Systems
B2: ActRIIB.hFc (soluble form of activin receptor type IIB fused to human IgG Fc fragment) (Fc fusion, UniProt Q13705 19-137, looked up)
chain: SGRGEAETRECIYYNANWELERTNQSGLERCEGEQDKRLHCYASWRNSSGTIELVKKGCWLDDFNCYDRQECVATEENPQVYFCCCEGNFCNERFTHLPEAGGPEVTYEPPPTAPTLLT
notes: activin receptor type IIB (ACVR2B; ActRIIB), soluble form; also called hActRIIB.hFc; ACVR2B; source: made at Regeneron
B3: GDF11 (ligand, human, UniProt O95390 299-407, looked up)
chain: NLGLDCDEHSSESRCCRYPLTVDFEAFGWDWIIAPKRYKANYCSGQCEYMFMQKYPHTHLVQQANPRGSAGPCCTPTKMSPINMLYFNDKQQIIYGKIPGMVVDRCGCS
notes: human GDF11, mature growth factor domain; source: bought: R&D Systems
B4: activin B (ligand, human, UniProt P09529 293-407, looked up)
chain: GLECDGRTNLCCRQQFFIDFRLIGWNDWIIAPTGYYGNYCEGSCPAYLAGVPGSASSFHTAVVNQYRMRGLNPGTVNSCCIPTKLSTMSMLYFDDEYNIVKRDVPNMIVEECGCA
notes: human activin B: inhibin beta B chain, mature growth factor domain; source: bought: R&D Systems

Experiments:
[1] = molecular target: B2; test: SPR; ligands at 40 to 0.78 nM injected over captured ActRIIB.hFc surface; Biacore T200, carboxymethyl dextran-coated CM4 sensor chip, 25 °C; conditions: both partners purified
[2] = molecular target: T1, activin AC (human, UniProt P08476 311-426; P55103 237-352); test: as above; conditions: both partners purified
T1 construct: human inhibin beta A chain, mature growth factor domain; human inhibin beta C chain, mature growth factor domain; source: bought: R&D Systems
T1 sequence (looked up) 1: B1 chain
T1 sequence (looked up) 2: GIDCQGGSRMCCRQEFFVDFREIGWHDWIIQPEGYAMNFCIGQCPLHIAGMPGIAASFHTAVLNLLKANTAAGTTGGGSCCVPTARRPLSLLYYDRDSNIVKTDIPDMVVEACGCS

[3] = molecular target: T2, activin AB (human, UniProt P08476 311-426; P09529 293-407); test: as above; conditions: both partners purified
T2 construct: human inhibin beta A chain, mature growth factor domain; human inhibin beta B chain, mature growth factor domain; source: bought: R&D Systems
T2 sequence (looked up) 1: B1 chain
T2 sequence (looked up) 2: B4 chain

[4] = molecular target: T1, activin AC; test: cell-based or functional assay
[5] = molecular target: B1; test: cell-based or functional assay
[6] = molecular target: T2, activin AB; test: cell-based or functional assay
[7] = molecular target: B3; test: cell-based or functional assay
[8] = molecular target: B4; test: cell-based or functional assay
[9] = molecular target: T3, Growth and differentiation factor 8 (GDF8) (human, UniProt O14793 267-375); test: cell-based or functional assay
T3 sequence (looked up): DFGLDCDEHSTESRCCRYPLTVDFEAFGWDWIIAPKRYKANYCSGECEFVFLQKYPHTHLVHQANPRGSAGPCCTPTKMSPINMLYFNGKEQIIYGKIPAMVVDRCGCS

Binder: B1
- Kd [1]: < 3.5 pM

Binder: B2
- Kd [2]: 5900 pM
- Kd [3]: 4.4 pM
- IC50 of ActRIIB.hFc against activin AC-stimulated Smad2/3 activity (CAGAx12-luc reporter, A204 cells; fixed ligand concentration) [4]: 85 pM
- IC50 of ActRIIB.hFc against activin A-stimulated Smad2/3 activity (CAGAx12-luc reporter, A204 cells; fixed ligand concentration) [5]: 630 pM
- IC50 of ActRIIB.hFc against activin AB-stimulated Smad2/3 activity (CAGAx12-luc reporter, A204 cells; fixed ligand concentration) [6]: 390 pM
- IC50 of ActRIIB.hFc against GDF11-stimulated Smad2/3 activity (CAGAx12-luc reporter, A204 cells; fixed ligand concentration) [7]: 210 pM
- IC50 of ActRIIB.hFc against activin B-stimulated Smad2/3 activity (CAGAx12-luc reporter, A204 cells; fixed ligand concentration) [8]: 550 pM
- IC50 of ActRIIB.hFc against GDF8-stimulated Smad2/3 activity (CAGAx12-luc reporter, A204 cells; fixed ligand concentration) [9]: 300 pM

Binder: B3
- Kd [1]: 14 pM

Binder: B4
- Kd [1]: 6.4 pM
